According to patent US20240199761A1 (AstraZeneca / MedImmune, published 2024):

Legend:
huFcRn = molecular target: T1, huFcRn (human, UniProt P55899 24-297; P61769 21-119, limits assumed); test: huFcRn affinity chromatography, pH gradient elution
T1 construct: also called human neonatal Fc receptor

recombinant mouse PAD2 = molecular target: T2, recombinant mouse PAD2 (mouse, UniProt Q08642 1-673); test: ratio of SPR KDs, mouse PAD2 against human PAD2; biotinylated antibody captured on C1-streptavidin, PAD flowed over
T2 construct: Recombinant and tagged

HPLC retention (huFcRn): 22.8 min | Relative retention (huFcRn): 0.746 | fold difference in KD, mouse/human (recombinant mouse PAD2): 2.1 fold
B1: Clone 12 (Bis3, FQQ-YTE; Fab anti-PAD2, scFv anti-PAD4) (bispecific antibody, human IgG1, lambda)
heavy: not shown
light: SYVLTQPPSVSVSPGQTASITCSGDKVGDKYVSWYQQKPGQSPVLVIYQDSQRPSGIPERFSGSNSGNTATLTISGTQAMDEADYYCQTWAPDVLLFGSGTKVTVLGQPKAAPSVTLFPPSSEELQANKATLVCLISDFYPGAVTVAWKADSSPVKAGVETTTPSKQSNNKYAASSYLSLTPEQWKSHRSYSCQVTHEGSTVEKTVAPTECS
notes: Bivalent bispecific IgG-HC-scFv; also called PAD240012; Bis3 = scFv (PAD4)-Fab(PAD2)
